Laboratory results: patent US20250326836A1 (SHIONOGI, published 2025)
Substitutions are numbered along the chain they refer to.

B1: mIML1-2 (antibody, V domains shown)
VH: QVQLQQSGAELVKPGASVKIACKASGYEFNYYWMNWVKQRPGKGLEWIGQIYPGDGDNKYNGKFKGKATLTADKSSSTVYMQLNSLTSEDSAVYFCARTGSGRFAYWGQGTLVTVSA
VL: QIVLTQSPAIMSASPGEKVTMTCRASSSVSSSYLHWYQQKSGASPKLWIYSTSNLASGVPARFSGSGSGTSYSLTITSVEAEDVATYYCQQYSGFPLTFGSGTKLEIKR
B2: m2F8 (antibody, V domains shown)
VH: QVQLQQSGAELVKPGASVKISCKASGYEFSYYWMNWVKQRPGKGLEWIGQIYPGDGDTNYNGKFKGKATLAAGKSSSTAYMQLSSLTSEDSAVYFCARSHGNYMIYWGQGTSVTVSS
VL: QIVLTQSPAIMSASLGERITLTCIASSSVSSSYLHWYQQKPGSSPKLWIYSTSNLASGVPTRFSGSGSGTSFSLTISTMEAEDAATYYCHQYHRSPRTFGGGTKLEIKR
B3: m4D7 (antibody, V domains shown)
VH: B2 VH with L70V, A71T, G73D, R98K, I105D
VL: B2 VL with I24T
B4: m24C4 (antibody, V domains shown)
VH: B2 VH with A71T, G73D, I105H
VL: B2 VL with I24T
B5: m26C7 (antibody, V domains shown)
VH: B2 VH with A71T, G73D, I105A
VL: B2 VL with I24T
B6: hIML1-2-OP1 (antibody, V domains shown)
VH: QVQLVQSGAEVKKPGASVKVSCKASGYEFNYYWMNWVRQAPGQGLEWMGQIYPGDGDNRYNGKFKGRVTMTRDTSTSTVYMELSSLRSEDTAVYYCARTGSGRFAYWGQGTLVTVSS
VL: DIQMTQSPSSLSASVGDRVTITCKASSSVSTRYLHWYQQKPGKAPKLLIYGTSNIASGVPSRFSGSGSGTDFTLTISSLQPEDVATYYCQQYTAFPLTFGQGTKVEIKR
B7: h2F8 (antibody, V domains shown)
VH: QVQLVQSGAEVKKPGASVKVSCKASGYEFSYYWMNWVRQAPGQGLEWMGQIYPGDGDTNYNGKFKGRVTMTRDTSTSTVYMELSSLRSEDTAVYYCARSHGNYMIYWGQGTTVTVSS
VL: EIVLTQSPGTLSLSPGERATLSCIASSSVSSSYLHWYQQKPGQAPRLLIHSTSNLASGIPERFSGSGSGPDFTLTISRLKPEDFAVYYCHQYHRSPRTFGQGTKVEIKR
B8: Nimacimab (BIRD ROCK BIO) (antibody, V domains shown)
VH: QVQLVQSGAEVKKPGSSVKVSCKASGYEFSYYWMNWVRQAPGQGLEWMGQIYPGDGETKYAQKFQGRVTITADKSTSTAYMELSSLRSEDTAVYYCARSHGNYLPYWGQGTLVTVSS
VL: EIVLTQSPATLSLSPGERATLSCRASQSVSSSYLHWYQQKPGQAPRLLIYSTSNLASGIPARFSGSGSGTDFTLTISRLEPEDFAVYYCHQYHRSPPTFGQGTKVEIK

Biological target: T1, human cannabinoid type 1 (CB1) receptor (human, UniProt P21554 1-472)
Assay: cell-based or functional assay

T1 sequence (P21554 whole entry): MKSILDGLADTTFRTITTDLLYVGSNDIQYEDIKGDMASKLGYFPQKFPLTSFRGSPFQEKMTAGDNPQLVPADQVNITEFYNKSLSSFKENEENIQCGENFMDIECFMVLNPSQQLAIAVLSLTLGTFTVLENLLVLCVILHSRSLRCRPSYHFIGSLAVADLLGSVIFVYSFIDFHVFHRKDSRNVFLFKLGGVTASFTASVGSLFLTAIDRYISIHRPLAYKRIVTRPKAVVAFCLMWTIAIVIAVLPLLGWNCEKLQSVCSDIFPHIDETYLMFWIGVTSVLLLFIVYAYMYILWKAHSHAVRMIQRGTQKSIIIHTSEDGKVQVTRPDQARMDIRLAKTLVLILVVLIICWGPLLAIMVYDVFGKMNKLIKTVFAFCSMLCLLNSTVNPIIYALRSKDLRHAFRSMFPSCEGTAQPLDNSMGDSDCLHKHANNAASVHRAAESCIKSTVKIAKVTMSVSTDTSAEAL

Binder | Ca^2+ influx assay IC50 [nM] | cAMP assay IC50 [nM]
B1 | 1.77 | 5.9
B2 | 0.9 | 4.9
B3 | 1.29 | 3.9
B4 | 1.22 | 5
B5 | 1.85 | 6.5

Biological target: T1, human cannabinoid type 1 (CB1) receptor
Assay: cell-based or functional assay
Remark: another data set of the same source

Binder | Ca^2+ influx assay IC50 [nM] | cAMP assay IC50 [nM]
B6 | 0.55 | 8.5
B7 | 2.03 | 5.9
B8 | 2.62 | 28.6
